According to patent US6072035:

B1: reshaped human C21 antibody C21-Hay3/L1 (antibody, V domains shown)
VH: QVQLVQSGAEVKKPGASVKVSCKASGYTFSMYWLEWVRQAPGQRLEWMGEISPGTFTTNYNEKFKARATFTADTSASTAYMELSSLRSEDTAVYYCARFSHFSGSNYDYFDYWGQGTLVTVSS
VL: DILLTQSPGTLSLSPGERATLSCRASQSIGTNIHWYQQKPGQAPRLLIKYASESISGIPSRFSGSGSGTDFTLTISRLEPEDFAMYY
B2: reshaped human C21 antibody C21-H1/L3 (antibody, V domains shown)
VH: QVQLVQSGAEVKKPGASVKVSCKASGYTFSMYWLEWVKQRPGHGLEWVGEISPGTFTTNYNEKFKAKATFTADTSTNTAYMELSSLTSEDTAVYYCARFSHFSG
VL: EIVLTQSPGTLSLSPGERATLSCRASQSIGTNIHWYQQKPGQAPRLLIKYASESISGIPSRFSGSGSGTDFTLTISRLEPEDFAMYYCQQSDSWPTTFGQGTKVEIK
B3: reshaped human C21 antibody C21-H3/L1 (antibody, V domains shown)
VH: QVQLVQSGAEVKKPGASVKVSCKASGYTFSMYWLEWVRQAPGHGLEWVGEISPGTFTTNYNEKFKARATFTADTSTNTAYMELSSLRSEDTAVYYCARFSHFSG
VL: DILLTQSPGTLSLSPGERATLSCRASQSIGTNIHWYQQKPGQAPRLLIKYASESISGIPSRFSGSGSGTDFTLTISRLEPEDFAMYY
B4: reshaped human C21 antibody C21-Hay3/L3 (antibody, V domains shown)
VH: QVQLVQSGAEVKKPGASVKVSCKASGYTFSMYWLEWVRQAPGQRLEWMGEISPGTFTTNYNEKFKARATFTADTSASTAYMELSSLRSEDTAVYYCARFSHFSGSNYDYFDYWGQGTLVTVSS
VL: EIVLTQSPGTLSLSPGERATLSCRASQSIGTNIHWYQQKPGQAPRLLIKYASESISGIPSRFSGSGSGTDFTLTISRLEPEDFAMYYCQQSDSWPTTFGQGTKVEIK
B5: reshaped human C21 antibody C21-Hay3/L2 (antibody, V domains shown)
VH: QVQLVQSGAEVKKPGASVKVSCKASGYTFSMYWLEWVRQAPGQRLEWMGEISPGTFTTNYNEKFKARATFTADTSASTAYMELSSLRSEDTAVYYCARFSHFSGSNYDYFDYWGQGTLVTVSS
VL: DILLTQSPGTLSLSPGERATLSCRASQSIGTNIHWYQQKPGQAPRLLIKYASESISGIPDRFSGSGSGTDFTLTISRLEPEDFAMYYCQQSDSWPTTFGQGTKVEIK
B6: reshaped human C21 antibody C21-H1/L2 (antibody, V domains shown)
VH: QVQLVQSGAEVKKPGASVKVSCKASGYTFSMYWLEWVKQRPGHGLEWVGEISPGTFTTNYNEKFKAKATFTADTSTNTAYMELSSLTSEDTAVYYCARFSHFSG
VL: DILLTQSPGTLSLSPGERATLSCRASQSIGTNIHWYQQKPGQAPRLLIKYASESISGIPDRFSGSGSGTDFTLTISRLEPEDFAMYYCQQSDSWPTTFGQGTKVEIK
B7: reshaped human C21 antibody C21-H1/L1 (antibody, V domains shown)
VH: QVQLVQSGAEVKKPGASVKVSCKASGYTFSMYWLEWVKQRPGHGLEWVGEISPGTFTTNYNEKFKAKATFTADTSTNTAYMELSSLTSEDTAVYYCARFSHFSG
VL: DILLTQSPGTLSLSPGERATLSCRASQSIGTNIHWYQQKPGQAPRLLIKYASESISGIPSRFSGSGSGTDFTLTISRLEPEDFAMYY
B8: reshaped human C21 antibody C21-H3/L2 (antibody, V domains shown)
VH: QVQLVQSGAEVKKPGASVKVSCKASGYTFSMYWLEWVRQAPGHGLEWVGEISPGTFTTNYNEKFKARATFTADTSTNTAYMELSSLRSEDTAVYYCARFSHFSG
VL: DILLTQSPGTLSLSPGERATLSCRASQSIGTNIHWYQQKPGQAPRLLIKYASESISGIPDRFSGSGSGTDFTLTISRLEPEDFAMYYCQQSDSWPTTFGQGTKVEIK
B9: reshaped human C21 antibody C21-H3/L3 (antibody, V domains shown)
VH: QVQLVQSGAEVKKPGASVKVSCKASGYTFSMYWLEWVRQAPGHGLEWVGEISPGTFTTNYNEKFKARATFTADTSTNTAYMELSSLRSEDTAVYYCARFSHFSG
VL: EIVLTQSPGTLSLSPGERATLSCRASQSIGTNIHWYQQKPGQAPRLLIKYASESISGIPSRFSGSGSGTDFTLTISRLEPEDFAMYYCQQSDSWPTTFGQGTKVEIK
B10: murine monoclonal antibody TES-C21 (antibody, V domains shown)
VH: QVQLQQSGAELMKPGASVKISCKTTGYTFSMYWLEWVKQRPGHGLEWVGEISPGTFTTNYNEKFKAKATFTADTSSNTAYLQLSGLTSEDSAVYFCARFSHFSGSNYDYFDYWGQGTSLTVSS
VL: DILLTQSPAILSVSPGERVSFSCRASQSIGTNIHWYQQRTDGSPRLLIKYASESISGIPSRFSGSGSGTEFTLNINSVESEDIADYYCQQSDSWPTTFGGGTKLEIK

These binders were tested against human IgE; monoclonal antibody SE44 (human) (UniProt P01854) (assay: BIAcore, antibody captured by anti-human IgG, IgE SE44 as analyte).
B1 was tested, and the Ka was 6.1e+09 M⁻¹, the koff was 4.1e-05 s⁻¹ and the kon was 250000 M⁻¹ s⁻¹.
For B2, the Ka was 4.7e+09 M⁻¹, the koff was 6.2e-05 s⁻¹ and the kon was 290000 M⁻¹ s⁻¹.
B3 was tested, and the Ka was 1.32e+10 M⁻¹, the koff was 1.9e-05 s⁻¹ and the kon was 250000 M⁻¹ s⁻¹.
B4 showed a Ka of 1.6e+09 M⁻¹, a koff of 0.000159 s⁻¹ and a kon of 260000 M⁻¹ s⁻¹.
Binder B5 has a Ka of 8.1e+09 M⁻¹, a koff of 3.1e-05 s⁻¹ and a kon of 250000 M⁻¹ s⁻¹.
Binder B6 has a Ka of 4.9e+09 M⁻¹, a koff of 5.7e-05 s⁻¹ and a kon of 280000 M⁻¹ s⁻¹.
For B7, the Ka was 8.7e+09 M⁻¹, the koff was 3e-05 s⁻¹ and the kon was 260000 M⁻¹ s⁻¹.
In the case of B8, the Ka is reported as 5.7e+09 M⁻¹, the koff is reported as 4.4e-05 s⁻¹ and the kon is reported as 250000 M⁻¹ s⁻¹.
With B9 the Ka was 7.4e+09 M⁻¹, the koff was 3.5e-05 s⁻¹ and the kon was 260000 M⁻¹ s⁻¹.

The binders below were run against human IgE; monoclonal antibody SE44 (human) (UniProt P01854) (assay: BIAcore, antibody captured by anti-mouse IgG1, IgE SE44 as analyte).
In the case of B10, the Ka is reported as 9.2e+09 M⁻¹, the koff is reported as 2.6e-05 s⁻¹ and the kon is reported as 240000 M⁻¹ s⁻¹.
